We go through 39 sequences from the supplement of paper PMC7877785.

± gives the uncertainty stated by the source.

This data set can be described thus: self-splicing fitness, log relative to wild type (ln ratio); higher = more splicing; Tetrahymena group I intron in knt gene, E. coli kanamycin selection, DiMSum; sequences stand for … in CUCUCU…GGAGGGAAAAGUUAUCAGGCAUGCACCUGGUAGCUAGUCUUUAAACCAAUAGAUUGCAUCGGUUUAAAAGGCAAGACCGUCAAAUUGCGGGAAAGGGGUCAACAGCCGUUCAGUACCAAGUCUCAGGGGAAACUUUGAGAUGGCCUUGCAAAGGGUAUGGUAAUAAGCUGACGGACAUGGUCCUAACCACGCAGCCAAGUCCUAAGUCAACAGAUCUUCUGUUGAUAUGGAUGCAGUUCACAGACUAAAUGUCGGUCGGGGAAGAUGUAUUCUUCUCAUAAGAUAUAGUCGGACCUCUCCUUAAUGGGAGCUAGCGGAUGAAGUGAUGCAACACUGGAGCCGCUGGGAACUAAUUUGUAUGCGAAAGUAUAUUGAUUAGUUUUGGAGUACUCGUGGUCG
The method in brief:
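A randomised library covering all eight P1ex-region intron nucleotides was built with the intron in the knt kanamycin-resistance gene on pET-22b(+) and held in E. coli BL21(DE3). Cells were grown overnight at 37°C or 30°C on LB agar, with or without 25 μg/mL kanamycin, plus 100 μg/mL carbenicillin, 50 μM IPTG and 0.2% rhamnose, and pooled colonies were amplicon-sequenced on an Illumina HiSeq 2500. DiMSum fitness is the error-weighted combination of wild-type-normalised replicate fold changes, kanamycin versus none.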

As to GAUGAGCAAUAUUACGGCCU, the “self-splicing fitness (ln)” value by setting is: (30 °C) -2.54 ± 0.18; (37 °C) -1.98 ± 0.23.
The matching figures for GAUGAGCAAUAUUACGGUAC: -5.2 ± 0.36 and -2.2 ± 0.33.
Regarding GAUGAGCAAUAUUACGGUGC, the “self-splicing fitness (ln)” value (37 °C) is -1.53 ± 0.28.
Take GAUGAGCAAUAUUACGUAAC: the “self-splicing fitness (ln)” value is, setting by setting: (30 °C) -1.63 ± 0.12; (37 °C) -1.9 ± 0.3.
With GAUGAGCAAUAUUACGUCCU, the “self-splicing fitness (ln)” value (37 °C) was -1.84 ± 0.49.
With GAUGAGCAAUAUUACGUCGA, the “self-splicing fitness (ln)” value runs as follows: (30 °C) -3.33 ± 0.35; (37 °C) -2.68 ± 0.3.
On the same counts, the results for GAUGAGCAAUAUUACGUGCG are -3.79 ± 0.17 and -1.8 ± 0.13.
Regarding GAUGAGCAAUAUUACGUGUC, the “self-splicing fitness (ln)” value (30 °C) is -3.53 ± 0.31.
Take GAUGAGCAAUAUUACGUUGU: under “37 °C”, the “self-splicing fitness (ln)” value was -1.69 ± 0.3.
Consider GAUGAGCAAUAUUACGUUUU, for which the “self-splicing fitness (ln)” value is -3.82 ± 0.22 (30 °C) and -2.72 ± 0.2 (37 °C).
On the same counts, the results for GAUUAGCAAUAUUACGACAA are -0.938 ± 0.17 and -0.154 ± 0.14.
The matching figures for GAUUAGCAAUAUUACGACAG: -3.57 ± 0.29 and -1.1 ± 0.23.
The matching figures for GAUUAGCAAUAUUACGAGGA: -2.13 ± 0.29 and -2.08 ± 0.31.
Take GAUUAGCAAUAUUACGAGUA: the “self-splicing fitness (ln)” value is, setting by setting: (30 °C) -2.63 ± 0.17; (37 °C) -0.695 ± 0.13.
On the same counts, the results for GAUUAGCAAUAUUACGAUCG are -1.06 ± 0.11 and -0.387 ± 0.12.
The matching figures for GAUUAGCAAUAUUACGAUUA: -0.22 ± 0.1 and -0.0882 ± 0.092.
In the case of GAUUAGCAAUAUUACGCAAG, the “self-splicing fitness (ln)” value is -2.11 ± 0.14 (30 °C) and -1.3 ± 0.13 (37 °C).
GAUUAGCAAUAUUACGCACU: the “self-splicing fitness (ln)” value is -0.846 ± 0.15 (30 °C) and 0.415 ± 0.18 (37 °C).
In the case of GAUUAGCAAUAUUACGCCAA, the “self-splicing fitness (ln)” value is, setting by setting: (30 °C) -3.48 ± 0.31; (37 °C) -1.91 ± 0.25.
Regarding GAUUAGCAAUAUUACGCCCU, the “self-splicing fitness (ln)” value (30 °C) is -0.409 ± 0.49.
Regarding GAUUAGCAAUAUUACGCGAA, the “self-splicing fitness (ln)” value (30 °C) was -3.47 ± 0.29 and the “self-splicing fitness (ln)” value (37 °C) is -1.44 ± 0.21.
The matching figures for GAUUAGCAAUAUUACGCUAA: -3.24 ± 0.39 and -1.89 ± 0.35.
As to GAUUAGCAAUAUUACGCUCG, the “self-splicing fitness (ln)” value by setting is: (30 °C) -1.11 ± 0.12; (37 °C) -0.397 ± 0.15.
The matching figures for GAUUAGCAAUAUUACGCUCU: -1.26 ± 0.41 and -0.272 ± 0.27.
The matching figures for GAUUAGCAAUAUUACGGAGA: -2.78 ± 0.25 and -2.19 ± 0.24.
On the same counts, the results for GAUUAGCAAUAUUACGGAGU are -2.77 ± 0.19 and -2.5 ± 0.23.
Consider GAUUAGCAAUAUUACGGGGG, for which the “self-splicing fitness (ln)” value (30 °C) is -4.1 ± 0.34 and the “self-splicing fitness (ln)” value (37 °C) was -2.72 ± 0.24.
The matching figures for GAUUAGCAAUAUUACGGUAA: -1.83 ± 0.23 and -1.5 ± 0.17.
Consider GAUUAGCAAUAUUACGGUCU, for which the “self-splicing fitness (ln)” value is, setting by setting: (30 °C) -3.15 ± 0.32; (37 °C) -2.07 ± 0.18.
The matching figures for GAUUAGCAAUAUUACGUAUU: -3 ± 0.12 and -1.65 ± 0.1.
On the same counts, the results for GAUUAGCAAUAUUACGUCCA are -2.04 ± 0.21 and 0.198 ± 0.18.
On the same counts, the results for GAUUAGCAAUAUUACGUCGC are -1.91 ± 0.15 and -0.838 ± 0.16.
Consider GAUUAGCAAUAUUACGUCGU, for which the “self-splicing fitness (ln)” value was -2.56 ± 0.19 (30 °C) and -1.13 ± 0.17 (37 °C).
The matching figures for GAUUAGCAAUAUUACGUGAC: -2.89 ± 0.12 and -0.588 ± 0.094.
With GAUUAGCAAUAUUACGUUGU, the “self-splicing fitness (ln)” value reads like this: (30 °C) -2.91 ± 0.23; (37 °C) -2.15 ± 0.28.
On the same counts, the results for GAUUAGCAAUAUUACGUUUG are -2.64 ± 0.15 and -0.801 ± 0.16.
Regarding GCAAAGCAAUAUUACGACCA, the “self-splicing fitness (ln)” value was -0.267 ± 0.15 (30 °C) and -0.678 ± 0.19 (37 °C).
On the same counts, the results for GCAAAGCAAUAUUACGAGAG are -2.7 ± 0.095 and -1.89 ± 0.12.
On the same counts, the results for GCAAAGCAAUAUUACGAGCU are -3.48 ± 0.16 and -1.5 ± 0.12.
